# Values of other authors as cited in patent US6878743B2, “Small molecule inhibitors of caspases” (Sunesis Pharmaceuticals, Inc., priority 2001, dated 2005).
# What was measured:
# caspase-3 = molecular target: T1, caspase-3 (Homo sapiens, UniProt P42574); settings: Garcia-Calvo et al. 1998
# T1 sequence (P42574 29-175 limits assumed): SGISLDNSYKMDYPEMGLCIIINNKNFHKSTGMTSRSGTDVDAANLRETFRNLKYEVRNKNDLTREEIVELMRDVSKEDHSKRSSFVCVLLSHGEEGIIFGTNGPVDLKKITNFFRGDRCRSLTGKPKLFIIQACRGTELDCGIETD
# T1 sequence (P42574 176-277 limits assumed): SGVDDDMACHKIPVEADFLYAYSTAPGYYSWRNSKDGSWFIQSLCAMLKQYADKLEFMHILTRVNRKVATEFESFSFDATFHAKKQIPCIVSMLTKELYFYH
# caspase-1 = molecular target: T2, caspase-1 (Homo sapiens, UniProt P29466); settings: Garcia-Calvo et al. 1998
# T2 sequence (P29466 120-297 limits assumed): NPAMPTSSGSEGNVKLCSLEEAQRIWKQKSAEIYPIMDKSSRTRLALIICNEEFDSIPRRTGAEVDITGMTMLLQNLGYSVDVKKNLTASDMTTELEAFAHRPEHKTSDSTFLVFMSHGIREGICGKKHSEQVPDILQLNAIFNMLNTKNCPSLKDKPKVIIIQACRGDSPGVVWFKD
# T2 sequence (P29466 317-404 limits assumed): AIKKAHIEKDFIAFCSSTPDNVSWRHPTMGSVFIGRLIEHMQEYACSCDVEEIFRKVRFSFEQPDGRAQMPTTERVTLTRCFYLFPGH
Substance,Ki (caspase-3) [nM],Ki (caspase-1) [nM]
Ac-Tyr-Val-Ala-Asp-CHO,1960,0.056
Ac-Asp-Glu-Val-Asp-CHO,,18
